Measurements reported in publication PMC3763545 (Nucleic Acids Research, 2013).

B2: human full-length SLIP1 (natural protein, UniProt A9UHW6 1-222, looked up)
chain: MGEPSREEYKIQSFDAETQQLLKTALKDPGAVDLEKVANVIVDHSLQDCVFSKEAGRMCYAIIQAESKQAGQSVFRRGLLNRLQQEYQAREQLRARSLQGWVCYVTFICNIFDYLRVNNMPMMALVNPVYDCLFRLAQPDSLSKEEEVDCLVLQLHRVGEQLEKMNGQRMDELFVLIRDGFLLPTGLSSLAQLLLLEIIEFRAAGWKTTPAAHKYYYSEVSD

Legend:
Test in all cases: ITC
[1] = target: zebrafish (Danio rerio) full-length SLIP1 (zebrafish (Danio rerio))
human full-length SLIP1 = target: B2
[2] = target: T1, human DBP5 f.l. (residues 1-479) (human, UniProt Q9UMR2 1-479)
T1 sequence (looked up): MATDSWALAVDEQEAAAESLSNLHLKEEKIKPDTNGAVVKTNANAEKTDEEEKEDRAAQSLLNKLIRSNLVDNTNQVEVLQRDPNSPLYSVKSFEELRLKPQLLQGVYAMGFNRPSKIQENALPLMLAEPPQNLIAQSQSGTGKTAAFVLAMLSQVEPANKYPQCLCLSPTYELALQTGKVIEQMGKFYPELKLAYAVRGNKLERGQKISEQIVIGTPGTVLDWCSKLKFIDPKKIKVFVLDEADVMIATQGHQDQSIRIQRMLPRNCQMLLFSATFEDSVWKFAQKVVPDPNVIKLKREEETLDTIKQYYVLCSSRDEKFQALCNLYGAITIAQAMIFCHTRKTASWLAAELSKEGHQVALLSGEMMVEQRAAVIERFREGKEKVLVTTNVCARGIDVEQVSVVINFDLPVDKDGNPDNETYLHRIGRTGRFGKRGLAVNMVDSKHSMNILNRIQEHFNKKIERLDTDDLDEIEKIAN

zebrafish DBP5 residues 1-32 (domain or fragment)
Kd [1]: 2000 nM

B1: human DBP5 residues 1-51 (domain or fragment, UniProt Q9UMR2 1-51, looked up)
chain: MATDSWALAVDEQEAAAESLSNLHLKEEKIKPDTNGAVVKTNANAEKTDEE
Kd (human full-length SLIP1): ~1100 nM

B2
Kd [2]: 100 nM
